A word on the stoichiometry N: it is the number of molecules, sites or subunits per partner or assembly.

Consider 13 molecules from paper PMC9772228, “Structure of a RecT/Redβ family recombinase in complex with a duplex intermediate of DNA annealing”.

The target of data set [1] is LiRecT (RecT/Redβ family recombinase from the A118 prophage of Listeria innocua) (Listeria innocua). The experiment in a line: native MS; free LiRecT without DNA at 30 µM, 100 mM ammonium acetate pH 7.
Data set [2] addresses T1, LiRecT WT (Listeria innocua CLIP 11262, UniProt Q92FL9 1-271).
T1 sequence: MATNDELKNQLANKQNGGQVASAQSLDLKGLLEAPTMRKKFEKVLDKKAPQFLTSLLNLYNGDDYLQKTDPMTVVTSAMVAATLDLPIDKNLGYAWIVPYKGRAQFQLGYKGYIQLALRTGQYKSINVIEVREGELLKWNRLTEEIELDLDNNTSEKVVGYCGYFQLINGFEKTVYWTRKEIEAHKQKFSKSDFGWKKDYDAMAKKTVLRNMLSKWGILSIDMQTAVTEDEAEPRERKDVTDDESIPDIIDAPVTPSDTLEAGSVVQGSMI
The experiment in a line: native MS; 17-18 LiRecT:1:1; EMSA: PBS pH 7.4 (or KH2PO4/10 mM MgCl2 pH 6.0), 3.6 or 5 uM protein, 25 uM nt DNA, 37 C 15 min per strand, 0.8% agarose 1x TBE; cryo-EM: 20 mM KH2PO4 (Results: 10 mM), 10 mM MgCl2 pH 6.0, 37 C; native MS: 100 mM ammonium acetate pH 7, 37 C. The settings on record: protein: recombinant; tags: N-terminal 6His, thrombin-cleaved in main prep; chain copies: 10; blunt. For orientation: In EMSA bound probe runs differently from free probe, usually more slowly.

Data set [3] concerns the target T1, LiRecT WT. The experiment in a line: cryo-EM; 10 mM MgCl2, pH 6.0; EMSA: PBS pH 7.4 (or KH2PO4/10 mM MgCl2 pH 6.0), 3.6 or 5 uM protein, 25 uM nt DNA, 37 C 15 min per strand, 0.8% agarose 1x TBE; cryo-EM: 20 mM KH2PO4 (Results: 10 mM), 10 mM MgCl2 pH 6.0, 37 C; native MS: 100 mM ammonium acetate pH 7, 37 C. The settings on record: protein: recombinant; tags: N-terminal 6His, thrombin-cleaved in main prep; chain copies: 10; single strand.

For data set [4], the target named is T1, LiRecT WT. The experiment in a line: native MS; 17 LiRecT:2 DNA among species; EMSA: PBS pH 7.4 (or KH2PO4/10 mM MgCl2 pH 6.0), 3.6 or 5 uM protein, 25 uM nt DNA, 37 C 15 min per strand, 0.8% agarose 1x TBE; cryo-EM: 20 mM KH2PO4 (Results: 10 mM), 10 mM MgCl2 pH 6.0, 37 C; native MS: 100 mM ammonium acetate pH 7, 37 C. The settings on record: protein: recombinant; tags: N-terminal 6His, thrombin-cleaved in main prep; chain copies: 10; single strand.

The target in data set [5] is T1, LiRecT WT. Nature of the data set: native MS; 17 LiRecT:1:1; EMSA: PBS pH 7.4 (or KH2PO4/10 mM MgCl2 pH 6.0), 3.6 or 5 uM protein, 25 uM nt DNA, 37 C 15 min per strand, 0.8% agarose 1x TBE; cryo-EM: 20 mM KH2PO4 (Results: 10 mM), 10 mM MgCl2 pH 6.0, 37 C; native MS: 100 mM ammonium acetate pH 7, 37 C. The settings on record: protein: recombinant; tags: N-terminal 6His, thrombin-cleaved in main prep; chain copies: 10; blunt.

The target of data set [6] is T1, LiRecT WT. The experiment in a line: native MS; 15 LiRecT:2 DNA among species; EMSA: PBS pH 7.4 (or KH2PO4/10 mM MgCl2 pH 6.0), 3.6 or 5 uM protein, 25 uM nt DNA, 37 C 15 min per strand, 0.8% agarose 1x TBE; cryo-EM: 20 mM KH2PO4 (Results: 10 mM), 10 mM MgCl2 pH 6.0, 37 C; native MS: 100 mM ammonium acetate pH 7, 37 C. The settings on record: protein: recombinant; tags: N-terminal 6His, thrombin-cleaved in main prep; chain copies: 10; single strand.

The target in data set [7] is T1, LiRecT WT. The experiment in a line: EMSA; EMSA: PBS pH 7.4 (or KH2PO4/10 mM MgCl2 pH 6.0), 3.6 or 5 uM protein, 25 uM nt DNA, 37 C 15 min per strand, 0.8% agarose 1x TBE; cryo-EM: 20 mM KH2PO4 (Results: 10 mM), 10 mM MgCl2 pH 6.0, 37 C; native MS: 100 mM ammonium acetate pH 7, 37 C. The settings on record: protein: recombinant, tags: N-terminal 6His, thrombin-cleaved in main prep, chain copies: 10, single strand.

Data set [8] deals with T1, LiRecT WT. The experiment in a line: native MS; 16 LiRecT:1 DNA among species; EMSA: PBS pH 7.4 (or KH2PO4/10 mM MgCl2 pH 6.0), 3.6 or 5 uM protein, 25 uM nt DNA, 37 C 15 min per strand, 0.8% agarose 1x TBE; cryo-EM: 20 mM KH2PO4 (Results: 10 mM), 10 mM MgCl2 pH 6.0, 37 C; native MS: 100 mM ammonium acetate pH 7, 37 C. The settings on record: protein: recombinant; tags: N-terminal 6His, thrombin-cleaved in main prep; chain copies: 10; single strand.

The target in data set [9] is T1, LiRecT WT. The experiment in a line: native MS; 1-2 fewer subunits than 83-mer complex; EMSA: PBS pH 7.4 (or KH2PO4/10 mM MgCl2 pH 6.0), 3.6 or 5 uM protein, 25 uM nt DNA, 37 C 15 min per strand, 0.8% agarose 1x TBE; cryo-EM: 20 mM KH2PO4 (Results: 10 mM), 10 mM MgCl2 pH 6.0, 37 C; native MS: 100 mM ammonium acetate pH 7, 37 C. The settings on record: protein: recombinant; tags: N-terminal 6His, thrombin-cleaved in main prep; chain copies: 10; blunt.

For data set [10], the target named is T2, λ-Redβ (bacteriophage lambda, UniProt P03698 1-261).
T2 sequence: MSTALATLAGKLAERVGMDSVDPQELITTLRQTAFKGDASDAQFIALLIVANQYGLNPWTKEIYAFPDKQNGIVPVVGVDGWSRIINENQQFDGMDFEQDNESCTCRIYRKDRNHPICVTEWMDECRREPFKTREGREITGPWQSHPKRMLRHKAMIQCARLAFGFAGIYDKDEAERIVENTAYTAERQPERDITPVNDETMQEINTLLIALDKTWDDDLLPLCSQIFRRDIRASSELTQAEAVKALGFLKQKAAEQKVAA
Nature of the data set: EMSA; sequential addition; EMSA: PBS pH 7.4 (or KH2PO4/10 mM MgCl2 pH 6.0), 3.6 or 5 uM protein, 25 uM nt DNA, 37 C 15 min per strand, 0.8% agarose 1x TBE; cryo-EM: 20 mM KH2PO4 (Results: 10 mM), 10 mM MgCl2 pH 6.0, 37 C; native MS: 100 mM ammonium acetate pH 7, 37 C. The settings on record: protein: recombinant; label: 5'-Cy3;5'-Cy5; 49 bp, 1 nt 5' overhang at each end.

In data set [11] the target is T1, LiRecT WT. The data set is described as above. The settings on record: protein: recombinant; tags: N-terminal 6His, thrombin-cleaved in main prep; chain copies: 10; label: 5'-Cy3;5'-Cy5; 49 bp, 1 nt 5' overhang at each end.

On to “LiRecT (RecT/Redβ family recombinase from the A118 prophage of Listeria innocua) (natural protein)”, for which the stoichiometry N in [1] was under 9.

B1: 83-/83+ annealed duplex (sequential) (dsDNA)
DNA 1: TTGCATATTTAAAACATGTTGAGCTACAGCACCAGATTCAGCAATTAAGCTCTAAGCCATCCGCAAAAATGACCTCTTATCAA
DNA 2: TTGATAAGAGGTCATTTTTGCGGATGGCTTAGAGCTTAATTGCTGAATCTGGTGCTGTAGCTCAACATGTTTTAAATATGCAA
As to B1, in data set [2], the binding result was “binds”.

B2: 83- (ssDNA)
DNA: B1 DNA 1
Turning to B2, the binding result in data set [3] is “binds”.

B3: 83+ (ssDNA)
DNA: B1 DNA 2
Consider B3, for which the binding result in [4] is on record as “binds”.

B4: 80-/80+ annealed duplex (sequential) (dsDNA)
DNA 1: CATATTTAAAACATGTTGAGCTACAGCACCAGATTCAGCAATTAAGCTCTAAGCCATCCGCAAAAATGACCTCTTATCAA
DNA 2: TTGATAAGAGGTCATTTTTGCGGATGGCTTAGAGCTTAATTGCTGAATCTGGTGCTGTAGCTCAACATGTTTTAAATATG
Take B4: in [5], the binding result was “binds”.

B5: 80- (ssDNA)
DNA: B4 DNA 1
In the case of B5, the binding result in [4] is “binds”.

B6: 80+ (ssDNA)
DNA: B4 DNA 2
B6: in [4], the binding result is listed as “binds”.

B7: 75+ (ssDNA)
DNA: TTGATAAGAGGTCATTTTTGCGGATGGCTTAGAGCTTAATTGCTGAATCTGGTGCTGTAGCTCAACATGTTTTAA
Turning to B7, the binding result in data set [6] is recorded as “binds”.

Turning to GCGGATGGCTTAGAGCAGAATCGCCCTGCATAGCTCGATTTTTGCGGATG (ssDNA) [Cy3-50mer], the binding result in data set [7] (label: 5'-Cy3) is listed as “binds”.

B8: 75- (ssDNA)
DNA: TTAAAACATGTTGAGCTACAGCACCAGATTCAGCAATTAAGCTCTAAGCCATCCGCAAAAATGACCTCTTATCAA
B8: in data set [8], the binding result is on record as “binds”.

B9: 75-/75+ annealed duplex (sequential) (dsDNA)
DNA 1: B8 DNA
DNA 2: B7 DNA
For the molecule B9, the binding result in data set [9] is listed as “binds”.

CCATCCGCAAAAATCGAGCTATGCAGGGCGATTCTGCTCTAAGCCATCCG (ssDNA) [Cy5-50mer]: the binding result in [7] (label: 5'-Cy5) is reported as “binds”.

B10: 50-mer duplex intermediate (sequential addition) (dsDNA)
DNA 1: GCGGATGGCTTAGAGCAGAATCGCCCTGCATAGCTCGATTTTTGCGGATG
DNA 2: CCATCCGCAAAAATCGAGCTATGCAGGGCGATTCTGCTCTAAGCCATCCG
Regarding B10, the binding result in [10] and in data set [11] was “binds” each time.
